Data published in article PMC12401969, “The gut microbiota protein BOC1 exhibits immune checkpoint inhibitor-like activity by inhibiting myeloid-derived suppressor cell differentiation” (Frontiers in Immunology, 2025).

T1: biotinylated CD200R1 (UniProt Q8TD46 29-265, biotin (site not stated))
T1 construct: CD200R1 (CD200 receptor 1), soluble biotinylated protein; Held on streptavidin Donor beads in the AlphaLISA; also called CD200R1-(biot)
T1 sequence (looked up): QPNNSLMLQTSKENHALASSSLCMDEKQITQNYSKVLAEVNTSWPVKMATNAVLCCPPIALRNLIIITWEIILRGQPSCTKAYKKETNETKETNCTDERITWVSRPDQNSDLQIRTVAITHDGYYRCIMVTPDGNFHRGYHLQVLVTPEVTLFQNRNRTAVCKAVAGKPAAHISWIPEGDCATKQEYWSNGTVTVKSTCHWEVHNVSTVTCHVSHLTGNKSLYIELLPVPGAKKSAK


Assays:
[1] = target: CD200R1 on human monocytes, MoDCs and MDSCs (human (endogenous in primary monocytes, MoDCs, MDSCs)) (UniProt Q8TD46)
biotinylated CD200R1 [2] = target: T1, biotinylated CD200R1; assay: AlphaScreen or HTRF; AlphaLISA; 3 nM CD200R1-(biot) with a dose response of His-tagged BOC1, its mutants, CD200 or P352 (0.1 to 300 nM by the legend, 0.1 to 100 nM by the table's footnote); fit 'One site-total' (GraphPad Prism)
biotinylated CD200R1 [3] = target: T1, biotinylated CD200R1; assay: AlphaScreen or HTRF; AlphaLISA; 3 nM CD200R1-(biot) with a dose response (0.1 to 100 nM) of the His-tagged protein; fit 'One site-total' (GraphPad Prism)

Sequence of CD200R1 on human monocytes, MoDCs and MDSCs (human (endogenous in primary monocytes, MoDCs, MDSCs)) (Q8TD46 25-348): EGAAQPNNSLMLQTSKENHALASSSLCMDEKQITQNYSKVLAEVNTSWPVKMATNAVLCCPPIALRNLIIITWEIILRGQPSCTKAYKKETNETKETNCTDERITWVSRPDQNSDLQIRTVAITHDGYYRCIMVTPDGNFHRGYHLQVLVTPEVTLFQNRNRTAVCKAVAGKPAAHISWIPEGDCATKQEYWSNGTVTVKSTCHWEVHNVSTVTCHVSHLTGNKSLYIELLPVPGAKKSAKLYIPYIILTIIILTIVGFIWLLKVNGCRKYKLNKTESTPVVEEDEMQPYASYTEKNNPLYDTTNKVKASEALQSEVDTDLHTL

Row | Molecule | inhibition of the differentiation of human monocytes into MDSCs (rhIL-6 + rhGM-CSF, 7 days; BOC1 at 1, 10, 50 nM), CD14+CD11b+CD33+HLA-DRlow cells by flow cytometry [1] | Kd (biotinylated CD200R1 [2]) | Kd (biotinylated CD200R1 [3]) | Kd (biotinylated CD200R1 [2]; both partners purified) | Kd (biotinylated CD200R1 [3]; both partners purified)
1 | BOC1-His (natural protein) | 90% | 0.38 nM | 0.38 nM | – | –
2 | BOC1-m1 (Glu19) (natural protein) | – | 0.96 nM | – | – | –
3 | BOC1-m2 (Ser34) (natural protein) | – | 2.78 nM | – | – | –
4 | CD200-His (ligand, UniProt P41217 31-232, looked up, CD200 (OX-2), soluble His-tagged protein; Held on anti-6His Acceptor beads in the AlphaLISA; also called His-tagged CD200) QVQVVTQDEREQLYTPASLKCSLQNAQEALIVTWQKKKAVSPENMVTFSENHGVVIQPAYKDKINITQLGLQNSTITFWNITLEDEGCYMCLFNTFGFGKISGTACLTVYVQPIVSLHYKFSEDHLNITCSATARPAPMVFWKVPRSGIENSTVTLSHPNGTTSVTSILHIKDPKNQVGKEVICQVLHLGTVTDFKQTVNKG | – | – | – | 0.95 ± 0.27 nM | 1.56 ± 0.3 nM
